Results as given in the supplement of paper PMC5998384.

Assays:
[1] = system: HeLa Kyoto; assay: solubility change mitosis vs G1/S (difference of NP-40 vs SDS log2 ratios) (log2 ratio difference); higher = more soluble in mitosis
[2] = system: HeLa Kyoto; assay: solubility in G1/S (NP-40 vs SDS abundance) (log2 ratio); higher = more soluble; settings: cell cycle stage: G1/S
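Throughout, for solubility change mitosis vs G1/S (difference of NP-40 vs SDS log2 ratios): synchronized HeLa Kyoto cells (double thymidine block for G1/S, nocodazole release for mitosis), protein amounts in NP-40 versus SDS lysates quantified by mass spectrometry, three biological replicates.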
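Throughout, for solubility in G1/S (NP-40 vs SDS abundance): HeLa Kyoto cells arrested at G1/S by double thymidine block, proteins quantified by TMT10plex mass spectrometry in mild NP-40 versus SDS extracts, three biological replicates.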

For “MDFREILMIASKGQGVNNVPKRYSLAVGPPKKDPKVKGVQSAAVQAFLKRKEEELRRKALEEKRRKEELVKKRIELKHDKKARAMAKRTKDNFHGYNGIPIEEKSKKRQATESHTSQGTDREYEMEEENEFLEYNHAESEQEYEEEQEPPKVESKPKVPLKSAPPPMNFTDLLRLAEKKQFEPVEIKVVKKSEERPMTAEELREREFLERKHRRKKLETDGKLPPTVSKKAPSQKESVGTKLSKGSGDRHPSSKGMPLPHAEKKSRPSMANEKHLALSSSKSMPGERIKAGSGNSSQPSLREGHDKPVFNGAGKPHSSTSSPSVPKTSASRTQKSAVEHKAKKSLSHPSHSRPGPMVTPHNKAKSPGVRQPGSSSSSAPGQPSTGVARPTVSSGPVPRRQNGSSSSGPERSISGSKKPTNDSNPSRRTVSGTCGPGQPASSSGGPGRPISGSVSSARPLGSSRGPGRPVSSPHELRRPVSGLGPPGRSVSGPGRSISGSIPAGRTVSNSVPGRPVSSLGPGQTVSSSGPTIKPKCTVVSETISSKNIISRSSNGQMNGMKPPLSGYRAAQGPQRLPFPTGYKRQREYEEEDDDDDEYDSEMEDFIEDEGEPQEEISKHIREIFGYDRKKYKDESDYALRYMESSWKEQQKEEAKSLRLGMQEDLEEMRREEEEMQRRRAKKLKRR [SPTY2D1]”, which “solubility change mitosis (log2)” value [1] is on record?
Its value is 0.873.

What about the “solubility in G1/S (log2)” value [2] of the same sequence?
The value was -1.47.

With “MLRRPAPALAPAARLLLAGLLCGGGVWAARVNKHKPWLEPTYHGIVTENDNTVLLDPPLIALDKDAPLRFAESFEVTVTKEGEICGFKIHGQNVPFDAVVVDKSTGEGVIRSKEKLDCELQKDYSFTIQAYDCGKGPDGTNVKKSHKATVHIQVNDVNEYAPVFKEKSYKATVIEGKQYDSILRVEAVDADCSPQFSQICSYEIITPDVPFTVDKDGYIKNTEKLNYGKEHQYKLTVTAYDCGKKRATEDVLVKISIKPTCTPGWQGWNNRIEYEPGTGALAVFPNIHLETCDEPVASVQATVELETSHIGKGCDRDTYSEKSLHRLCGAAAGTAELLPSPSGSLNWTMGLPTDNGHDSDQVFEFNGTQAVRIPDGVVSVSPKEPFTISVWMRHGPFGRKKETILCSSDKTDMNRHHYSLYVHGCRLIFLFRQDPSEEKKYRPAEFHWKLNQVCDEEWHHYVLNVEFPSVTLYVDGTSHEPFSVTEDYPLHPSKIETQLVVGACWQEFSGVENDNETEPVTVASAGGDLHMTQFFRGNLAGLTLRSGKLADKKVIDCLYTCKEGLDLQVLEDSGRGVQIQAHPSQLVLTLEGEDLGELDKAMQHISYLNSRQFPTPGIRRLKITSTIKCFNEATCISVPPVDGYVMVLQPEEPKISLSGVHHFARAASEFESSEGVFLFPELRIISTITREVEPEGDGAEDPTVQESLVSEEIVHDLDTCEVTVEGEELNHEQESLEVDMARLQQKGIEVSSSELGMTFTGVDTMASYEEVLHLLRYRNWHARSLLDRKFKLICSELNGRYISNEFKVEVNVIHTANPMEHANHMAAQPQFVHPEHRSFVDLSGHNLANPHPFAVVPSTATVVIVVCVSFLVFMIILGVFRIRAAHRRTMRDQDTGKENEMDWDDSALTITVNPMETYEDQHSSEEEEEEEEEEESEDGEEEDDITSAESESSEEEEGEQGDPQNATRQQQLEWDDSTLSY [CLSTN1]” as the sequence, how does the “solubility change mitosis (log2)” value [1] read?
The value was -0.189.

What about the “solubility in G1/S (log2)” value [2] of the same sequence?
The value was -0.0306.

With “MFPVKVKVEKSELEMAKARNQLDAVLQCLLEKSHMDRERLDEEAGKTPSDTHNKDCSIAATGKRPSARFPHQRRKKRREMDDGLAEGGPQRSNTYVIKLFDRSVDLAQFSENTPLYPICRAWMRNSPSVRERECSPSSPLPPLPEDEEGSEVTNSKSRDVYKLPPPTPPGPPGDACRSRIPSPLQPEMQGTPDDEPSEPEPSPSTLIYRNMQRWKRIRQRWKEASHRNQLRYSESMKILREMYERQ [LIN37]” as the sequence, how does the “solubility change mitosis (log2)” value [1] read?
The value was 0.0692.

What about the “solubility in G1/S (log2)” value [2] of the same sequence?
Its value is 0.591.

With “MAEGEGYFAMSEDELACSPYIPLGGDFGGGDFGGGDFGGGDFGGGGSFGGHCLDYCESPTAHCNVLNWEQVQRLDGILSETIPIHGRGNFPTLELQPSLIVKVVRRRLAEKRIGVRDVRLNGSAASHVLHQDSGLGYKDLDLIFCADLRGEGEFQTVKDVVLDCLLDFLPEGVNKEKITPLTLKEAYVQKMVKVCNDSDRWSLISLSNNSGKNVELKFVDSLRRQFEFSVDSFQIKLDSLLLFYECSENPMTETFHPTIIGESVYGDFQEAFDHLCNKIIATRNPEEIRGGGLLKYCNLLVRGFRPASDEIKTLQRYMCSRFFIDFSDIGEQQRKLESYLQNHFVGLEDRKYEYLMTLHGVVNESTVCLMGHERRQTLNLITMLAIRVLADQNVIPNVANVTCYYQPAPYVADANFSNYYIAQVQPVFTCQQQTYSTWLPCN [FAM46A]” as the sequence, how does the “solubility change mitosis (log2)” value [1] read?
Its value is -0.172.

And the “solubility in G1/S (log2)” value [2]?
The value was -0.00125.
